Results: patent US20090011000A1, “Inhibitors of Infection” (priority 2004, published 2009)
Where two headings read alike, the source gives them in different places.

B1: chrtm5: gp41 residues 118 to 200 with N-terminal HIS-tag, TEV and Enterokinase protease sites, transmembrane region, five cytoplasmic residues (protein)
chain: PCVKLTPLCVSLKCTDLKNDTNTNSSSGRMIMEKGEIKNCSFNISTSIRGKVQKEYAFFYKLDIIPIDNDTTSYKLTSCNTSV
modifications: left off: small tags and cut ends
notes: gp41 residues 118 to 200 with N-terminal HIS-tag, TEV and Enterokinase protease sites, transmembrane region, five cytoplasmic residues

Experiments:
HIVNL-4.3 = details: single round infection assay, TZM-b1 cells
Excerpt: Two days later, infection cells were lysed and expression of luciferase activity measured.
HIV Neutralization assay.
These C-terminal peptides interact with the N-terminal coiled coil of gp41 thus blocking the refolding of gp41 into the six helical bundle structure ({115}, {116}. {117} and {39}).

mAb 2F5 Fabs = test: chrtm5/2F5 Fab complex, Superdex 200 gel filtration and SDS-PAGE; assay type: binding; details: gel filtration, peak analysed by SDS-PAGE
Protocol: Chrtm5/2F5 Fab complexes were formed and purified on a Superdex 200 gel filtration column.
Fractions corresponding to the major peak shown in FIG. 10 were separated by SDS-PAGE and stained with Coomassie brilliant blue.
The oligomeric nature of chrtm5 was then further confirmed by purifying chrtm5 in complex with mAb 2F5 Fabs. This complex formation shifts the gel filtration profile to a larger molecular weight and chrtm5/2F5-Fab complexes elute at ˜12.5 ml (FIG. 10).

rabbits = test: Immunization of rabbits with chrtm5 proteoliposomes, Western blot of serum; assay type: in vivo; details: chrtm5 incorporated into proteoliposomes, two rounds of immunization, preliminary
Protocol: The oligomeric forms of CHRTM5 are indicated by numbers. The same pattern was obtained with serum dilutions of 1:50, 1:100 and 1:1000.
Liposome preparation. Phospholipids were dissolved in chloroform and dried under a steam of nitrogen. Lipid films were resuspended in reconstitution buffer (25 mM HEPES pH 7.4, 0.1 M KCl). The turbid MLV suspension was passed 21 times through a polycarbonate membrane to give large unilamellar vesicles (LUV) with a diameter of 100 nm. LUVs were solubilized with 20 mM β-OG for one hour at 4° C., and afterwards incubated with protein for an additional hour. The proteoliposome solution was dialyzed with a Liposomat against reconstitution buffer for three hours at room temperature. Pure proteoliposomes were separated from excess protein by gel filtration through a Sephadex G-50 column and were collected by ultracentrifugation at 250000×g for one hour at 4° C. The pellet of pure proteoliposomes was resuspended in reconstitution buffer. The proteoliposomes were used in immunization studies to determine the immunogenicity in rabbits.
chrtm5 can be incorporated into liposomes, which were used for immunization studies.

mAb 4E10 = test: Pull down assay of chrtm5 with mAb 4E10; assay type: binding
Protocol: (§1) Lane 1—marker; Lane 2—control without antibody; Lane 3—mAb 2F5; and Lane 4—mAb 4E10.
(§2) Pull down assays were then performed to determine whether chrtm5 interacts with the neutralizing antibodies 2F5 and 4E10.

mAb 2F5 = test: Pull down assay of chrtm5 with mAb 2F5; assay type: binding
Protocol: as §1, §2

Molecule | IC50 (HIVNL-4.3; HIVNL-4.3, luciferase activity 2 days later) | IC50 (HIVNL-4.3; HIVNL-4.3, molar value in brackets) | complex formation with mAb 2F5 Fabs (mAb 2F5 Fabs) | immunogenicity (rabbits) | pull down by antibody 4E10 (mAb 4E10) | pull down by antibody 2F5 (mAb 2F5)
enfuvirtide | 0.2 µg/mL | 45 nM | – | – | – | –
B1 | – | – | the peak contains both chrtm5 and 2F5 Fab fragments | immunogenic in rabbits | both antibodies pull down chrtm5 | both antibodies pull down chrtm5
